Reference: US20090042782A1, “Diagnostic and therapeutic strategies for conditions associated with the FLJ13639 gene” (priority 2005, published 2009)

B1: P1-TAT: recombinant FLJ13639/P1 protein in frame with HIV TAT protein transduction domain and 6×Histidine tag; amino acid sequence SEQ ID NO:5 (protein)
chain: MRGSHHHHHHGMASMTGGQQMGRDLYDDDDKDRWGSKLGYGRKKRRQRRRGGSTMSGYPYDVPDYAGSMAGTGLESLYRSVVWFAKGLREYTKSGYESACKDFVPHDLEVQIPGRVFLVTGGNSGIGKATALEIAKRGGTVHLVCRDQAPAEDARGEIIRESGNQNIFLHIVDLSDPKQIWKFVENFKQEHKLHVLINNAGCMVNKRELTEDGLEKNFAANTLGVYILTTGLIPVLEKEHDPRVITVSSGGMLVQKLNTNDLQSERTPFDGTMVYAQNKRQQVVLTERWAQGHPAIHFSSMHPGWADTPGVRQAMPGFHARFGDRLRSEAQGADTMLWLALSSAAAAQPSGRFFQDRKPVSTHLPLATASSSPAEEEKLIEILEQLAQTFK

Legend:
Format in all cases: cell-based
[1] = test system: HL60 cells; test: JC-1 mitochondrial membrane potential staining, fluorescence microscopy
From the text: FIG. 14A is a graphical representation of green/red fluorescence intensity ratio data measured for treatment of HL60/VDR cells (a vinctrisin resistant cell line) as indicated for the x-axis. * indicates statistical significance.
Disruption of the mitochondrial membrane potential (Δψm) is an early event associated with apoptosis and may be one of several factors responsible for cytochrome c release (17, 18). Using JC-1 mitochondrial potential sensor (Molecular Probes, Inc) staining and fluorescence microscopy, we analyzed the Δψm in VCR (vincristin) treated HL60 cells. In healthy cells, the dye accumulates and aggregates in mitochondria, where it fluoresces bright red. In apoptotic cells, however, it cannot enter mitochondria if the Δψm is altered and fluoresces bright green as a cytoplasmic monomer. Therefore, mitochondria depolarization is indicated by a decrease of the red/green fluorescence intensity ratio.

[2] = test system: HL60/VCR (Vincristin resistant) cells; test: MTT viability assay; details: 48 h
Procedure: Viability assays by conventional MTT assay protocol (Promega) were performed at 48 h after the beginning of the experiment.

[3] = test system: HeLa cells; test: Lactic acid production in culture medium; details: treated for 3 days vs not treated
Procedure: Mitochondria are well known for their essential role in cell respiration and apoptosis. Cancer cells are known to have altered mitochondrial respiration, where pyruvate is catabolized in the lactic acid fermentation pathway instead of being used in the Krebbs cycle in the mitochondria, which produces energy far more efficiently. […] Culture medium was tested for lactic acid levels.

[4] = test system: CD24 protein expression; test: CD24 protein expression by immunofluorescence; details: OM9;22 ALL cell line, 48 hours of treatment
From the text: (§1) The same results were obtained using the OVCAR3 ovarian cancer cell line (not shown).

[5] = test system: CD24 expression; test: CD24 expression by RT-PCR in leukemia cell lines incubated with P1-TAT
Procedure: Reverse transcription was done in 20 μl containing a minimum of 1.25 μg of total RNA, 1 μl of 10 mM of deoxynucleotide triphosphate (NEB, Ipswitch, Mass.), 1 μl of 0.5 μg/μl oligo (dT) 18 (IDT, Coralville, Iowa), 1 μl of 40 U/μl ribonuclease inhibitor (Fermentas, Hanover, Md.), 2 μl of 10×reaction buffer (NEB), and 0.25 μl of 200 U/μl MMLV reverse transcriptase (NEB). After incubation with 1 μl of 5U μl RNase H (NEB) for 20 minutes, multiplex PCR reaction was carried out, allowing for simultaneous detection of CD24 and FLJ13639 expression levels. The primers are: CD 24 (resulting in an amplification product of 300 pb) forward: 5′[…]3′ (SEQ ID NO:12), reverse: 5′[…]3′ (SEQ ID NO:13). The primers for FLJ13639 P1 (resulting in an amplification product of 233 pb) are the same as those described in Example 1. The reactions were of an initial denaturation at 95° C. for 10 minutes, followed by 35 cycles: denaturation, 50 seconds at 95° C., annealing 50 seconds at 54° C. and extension 60 seconds at 75° C. Actin amplification was performed as an internal control, according to the following protocol: 15 seconds at 95° C., 30 seconds at 60° C. and 60 seconds at 75° C.
After 48 hours of incubation, cells were harvested, RNA was extracted and cDNA was used for CD24 expression assessment by RT-PCR.
as §1

[6] = test system: UoCB1 cells; test: Matrigel invasion assay; details: 20 μg of P1-TAT for 48 h, treatment versus no treatment
From the text: To perform the Matrigel invasion assay, cells were deposited on top of a matrigel well and chemoattractant (fetal bovine serum) solutions were positioned below the matrigel matrix. Only cells with an invasive potential will “travel” toward the chemoattractant solutions through the matrigel.

[7] = test system: MCF7; test: Wound healing assay, breast cancer cells; details: treated vs not treated
Procedure: FIG. 12B is a wound healing assay as depicted in FIG. 12A performed on breast cancer cells.
(§2) This was performed by growing the cells to confluence and forming a “wound” by scoring the culture with a pipette tip. The cells were then treated with P1-TAT and assessed for their ability to close the gap between the two artificially created cell populations.

[8] = test system: H520 cells; test: Wound healing assay, lung cancer cells; details: treated vs not treated, 5 days
Procedure: FIG. 12A is a photographic representation of a wound healing assay performed on lung cancer cell lines. The H520 cells were treated (or not treated) with the FLJP1-TAT and motility of cells was monitored through a light microscope to analyze closing of the created gap.
as §2

Row | Molecule | green/red fluorescence ratio ([1]; 0.1 ug of VCR alone) | green/red fluorescence ratio ([1]; 1 ug of VCR alone, p<0.01) | cytotoxicity at 1 µM ([2]; HL60/VCR, Vincristin 1 μM, read-out: reduction of cell viability) [%] | effect on cell viability ([2]; Vincristin 0.1 μM) | level of lactic acid in culture medium [3] | CD24 protein expression [4] | CD24 expression ([5]; OM9:22, ALL-1, K562, 207 cell lines, 20 μg of P1-TAT (data not shown)) | CD24 expression levels ([5]; UoCB1 cell line, increasing amount of P1-TAT, 48 hours, RT-PCR) | CD24 levels, time-course ([5]; UoCB1 cells, 20 μg of P1-TAT, six hours after incubation) | decrease of invasion potential [6] [fold] | motility / closing of the gap [7] | motility / closing of the gap [8] | motility / closing of the gap ([8]; listed as FLJ13639P1-TAT)
1 | CC[C@]1(O)C[C@H]2CN(CCc3c([nH]c4ccccc34)[C@@](C(=O)OC)(c3cc4c(cc3OC)N(C=O)[C@H]3[C@@](O)(C(=O)OC)[C@H](OC(C)=O)[C@]5(CC)C=CCN6CC[C@]43[C@@H]65)C2)C1 [Vincristin, vincristin] | low green/red fluorescence ratio | significant increase | 90 | almost no effect | – | – | – | – | – | – | – | – | –
2 | B1 | – | – | – | – | significantly lower level | down-regulated | marked CD24 down-regulation | inversely proportional | significantly downregulated | 2.4 | significantly reduced the motility | significantly reduced the motility | inhibited filling of the gap
